We go through two compounds from patent publication US20170119864A1, “SACCHARIDE VACCINE FORMULATION” (GLAXOSMITHKLINE BIOLOGICALS S.A., priority 2013, published 2017).

Data set [1] in a line: RP-HPLC MAG-Tn3 content before and after 0.2 μm filtration. Particulars: L-arginine-L-arginine-mono-hydrochloride buffer system. The data set is classed as physicochemical. Here is the method: RP-HPLC was performed to assess MAG-Tn3 content in the formulations before and after filtration with a 0.2 μm syringe filter. A Waters 2996 HPLC equipped with UV detection was used with a Poros R 1/10 column from Applied Biosciences and a 0-100% acetonitrile in 0.1% triflouroacetic acid gradient. Size-exclusion chromatography was performed using a Waters 2996 HPLC equipped with a fluorescence detector (Waters) to assess the aggregation profiles of the resulting formulations using a TSKgel G3000PWxl column (Tosoh Bioscience LLC) and a mobile phase of 200 mM NaCl. SDS-PAGE analysis was done using 4-12% Bis-Tris gels (Invitrogen) and MES running buffer (Invitrogen). The gels were stained using Invitrogen's SilverQuest. Centrifuged and non-centrifuged samples were run on gel to assess the presence of precipitate in the formulations. Centrifugation was performed for 15 minutes at 18 000 g. […]
RP-HPLC was performed to assess MAG-Tn3 content in the formulations before and after filtration with a 0.2 μm syringe filter. […] Size-exclusion chromatography was performed using a Waters 2996 HPLC equipped with a fluorescence detector (Waters) to assess the aggregation profiles of the resulting formulations using a TSKgel G3000PWxl column (Tosoh Bioscience LLC) and a mobile phase of 200 mM NaCl. […]

For data set [2] the following is noted: value used in equation 1; cited from earlier work.

As to `CC[C@H](C)[C@H](NC(=O)CNC(=O)[C@@H](NC(=O)[C@H](Cc1ccccc1)NC(=O)[C@H](CCCCN)NC(=O)[C@H](CO)NC(=O)[C@H](CC(N)=O)NC(=O)[C@H](C)NC(=O)[C@H](CCCCN)NC(=O)[C@@H](NC(=O)[C@H](Cc1ccc(O)cc1)NC(=O)[C@H](CCC(N)=O)NC(=O)C(NC(=O)C(NC(=O)C(N)CO[C@H]1O[C@H](CO)[C@H](O)[C@H](O)[C@H]1NC(C)=O)C(C)O[C@H]1O[C@H](CO)[C@H](O)[C@H](O)[C@H]1NC(C)=O)C(C)O[C@H]1O[C@H](CO)[C@H](O)[C@H](O)[C@H]1NC(C)=O)[C@@H](C)CC)[C@@H](C)CC)C(=O)N[C@H](C(=O)N[C@@H](CCC(=O)O)C(=O)N[C@@H](CC(C)C)C(=O)NCCCC[C@H](NC(=O)[C@H](CC(C)C)NC(=O)[C@H](CCC(=O)O)NC(=O)[C@@H](NC(=O)[C@@H](NC(=O)CNC(=O)[C@@H](NC(=O)[C@H](Cc1ccccc1)NC(=O)[C@H](CCCCN)NC(=O)[C@H](CO)NC(=O)[C@H](CC(N)=O)NC(=O)[C@H](C)NC(=O)[C@H](CCCCN)NC(=O)[C@@H](NC(=O)[C@H](Cc1ccc(O)cc1)NC(=O)[C@H](CCC(N)=O)NC(=O)C(NC(=O)C(NC(=O)C(N)CO[C@H]1O[C@H](CO)[C@H](O)[C@H](O)[C@H]1NC(C)=O)C(C)O[C@H]1O[C@H](CO)[C@H](O)[C@H](O)[C@H]1NC(C)=O)C(C)O[C@H]1O[C@H](CO)[C@H](O)[C@H](O)[C@H]1NC(C)=O)[C@@H](C)CC)[C@@H](C)CC)[C@@H](C)CC)[C@@H](C)O)C(=O)NCCCC[C@H](NC(=O)[C@H](CCCCNC(=O)[C@H](CC(C)C)NC(=O)[C@H](CCC(=O)O)NC(=O)[C@@H](NC(=O)[C@@H](NC(=O)CNC(=O)[C@@H](NC(=O)[C@H](Cc1ccccc1)NC(=O)[C@H](CCCCN)NC(=O)[C@H](CO)NC(=O)[C@H](CC(N)=O)NC(=O)[C@H](C)NC(=O)[C@H](CCCCN)NC(=O)[C@@H](NC(=O)[C@H](Cc1ccc(O)cc1)NC(=O)[C@H](CCC(N)=O)NC(=O)C(NC(=O)C(NC(=O)C(N)CO[C@H]1O[C@H](CO)[C@H](O)[C@H](O)[C@H]1NC(C)=O)C(C)O[C@H]1O[C@H](CO)[C@H](O)[C@H](O)[C@H]1NC(C)=O)C(C)O[C@H]1O[C@H](CO)[C@H](O)[C@H](O)[C@H]1NC(C)=O)[C@@H](C)CC)[C@@H](C)CC)[C@@H](C)CC)[C@@H](C)O)NC(=O)[C@H](CC(C)C)NC(=O)[C@H](CCC(=O)O)NC(=O)[C@@H](NC(=O)[C@@H](NC(=O)CNC(=O)[C@@H](NC(=O)[C@H](Cc1ccccc1)NC(=O)[C@H](CCCCN)NC(=O)[C@H](CO)NC(=O)[C@H](CC(N)=O)NC(=O)[C@H](C)NC(=O)[C@H](CCCCN)NC(=O)[C@@H](NC(=O)[C@H](Cc1ccc(O)cc1)NC(=O)[C@H](CCC(N)=O)NC(=O)C(NC(=O)C(NC(=O)C(N)CO[C@H]1O[C@H](CO)[C@H](O)[C@H](O)[C@H]1NC(C)=O)C(C)O[C@H]1O[C@H](CO)[C@H](O)[C@H](O)[C@H]1NC(C)=O)C(C)O[C@H]1O[C@H](CO)[C@H](O)[C@H](O)[C@H]1NC(C)=O)[C@@H](C)CC)[C@@H](C)CC)[C@@H](C)CC)[C@@H](C)O)C(=O)NCCC(=O)O)[C@@H](C)O` (stereo partly drawn) [MAG-Tn3], in data set [1] (with CpG7909), the “dose up to which MAG-Tn3 appears soluble” value is given as not above 450 μg/dose. Also, the solubility in data set [1] (with CpG7909, final reconstituted vaccine, read-out: concentration up to which MAG-Tn3 appears soluble) is not above 900 µg/mL.

Turning to `N=C(N)NCCC[C@H](N)C(=O)O` [Arginine], the pKa result in data set [2] is on record as “molar ratios of Arg:ArgHCl (Arg pKa = 8.991)”.
